Results taken from patent CN118290581A (ZHEJIANG ZHENGXI BIOTECHNOLOGY CO LTD, dated 2024).
Blank lines part the entries; values can stand above or below the binder they belong to.

Tests used:
人CD138 [1] = biological target: T1, 人CD138 (human, UniProt P18827 23-310); test: flow cytometry titration of antibody dilutions (from 1 mg/mL) on cultured activated human cells, goat anti-mouse IgG-PE detection
T1 construct: whole, on cells; also called syndecan-1; CD138靶抗原
T1 sequence (looked up): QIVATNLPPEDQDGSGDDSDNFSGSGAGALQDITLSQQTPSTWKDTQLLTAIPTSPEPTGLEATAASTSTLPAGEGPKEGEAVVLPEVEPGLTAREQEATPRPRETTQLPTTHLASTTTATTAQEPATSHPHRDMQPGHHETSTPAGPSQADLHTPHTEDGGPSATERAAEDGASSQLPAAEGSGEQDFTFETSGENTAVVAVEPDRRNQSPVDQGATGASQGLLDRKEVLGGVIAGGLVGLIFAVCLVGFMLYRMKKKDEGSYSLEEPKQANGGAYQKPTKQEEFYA

人CD138 [2] = biological target: T1, 人CD138; test: flow cytometry, APC-labelled antibody on cultured activated cells

亲和力(kd) (人CD138 [1]): 25.2
B1: 鼠抗人CD138[ZXCloneHCD138-02]抗体 (antibody, mouse IgG1, kappa, V domains shown)
VH: QVQLQQPGSVLVRPGASVKLSCKTSGYTFTSSWMHWAKQRPGQGLEWIGEIHPNGGNTYYNEKFKGKATLSVDTSSSTAYVDLSSLTSEDSAVYFCATPHYWGQGTTLTVSS
VL: DVVMTQTPLSLPVSLGDQASISCRCRQSLVHSNGNTYLQWYLQKPGQSPILLIYRVSNRFSGVPDRFSGSGSGTDFTLKISRVEAEDLGVYFCSQSTHVPHTFGAGTKLELKR

binding result (人CD138 [2]): binds
B2: 自制鼠抗人CD138[ZXCloneHCD138-02]-APC (antibody, mouse IgG1, kappa, V domains shown)
VH: B1 VH
VL: B1 VL
modifications: APC-labelled (site and chain not stated)
